Molecular target: Full-length Stigmatella aurantiaca bacteriophytochrome 2 (SaBphP2), Pr state (Stigmatella aurantiaca)
Assay: cryo-EM structure; single-particle cryo-EM, Spotiton nanowire grid, 0.4 mg/ml, pre-illuminated with 740 nm light (pure Pr state); global resolution 6.0 Å; subunits fitted as rigid units, not refined

stoichiometry N: 2
Substance: Full-length Stigmatella aurantiaca bacteriophytochrome 2 (SaBphP2), Pr state (natural protein)

Source: paper PMC12048173
